Reference: the nanobody polyreactivity screen of Harvey et al. (2022)

Assay: yeast display, Sf9 membrane polyspecificity reagent, FACS + sequencing; frameworks hold sequencing errors
Method in brief: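 After 36–48 hours of galactose induction, yeast (Saccharomyces cerevisiae BJ5465) displaying a synthetic nanobody library were stained at 4 °C for 1 hour with 10% biotinylated, detergent-solubilized Sf9 membrane reagent. Streptavidin microbeads enriched the stained cells before FACS sorting into low and high (top ~1%) gates on anti-HA and streptavidin fluorescence. Each clone's polyreactivity label reflects its gate of origin.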

Sequence | polyreactivity (PSR sort gate)
QVQLVESGGGLVQAGGTLRLSCAASGLTFARYAMGWYRQAPGKERELVAGIDSTGGTTYYADSVKGRFTISRDNAKNTFYLQMISLIPEDTAVYYCNTGGTFLDWVRSPFGFGYWGQGTQVTVSS | low polyreactivity
QVQLVESGGGLVQAGGSLRLSCAASGRTFYDYARGWYRQGPGKERELVAAITSGGSTNYADSVKGRFTISRDNAKNTVYLQMNSLKPEDTAVYYCAADDCYVWGFDMNYWGQGTQVTVSS | high polyreactivity
QVQLVESGGGLVQAGGSLRLSCAASGSIFSTYAMGWYRQAPGKERELVAAISSSSGSTYYADSVKGRFTISRDNAKNTVYLQMNSLKPEDTAVYYCAAAYSQYSTSYYYWGQGTQVTVSS | high polyreactivity
QVQLVESGGGLGQAGGSLRLSCAASGSIFITYAMGWYRQAPGKERELVAAIRRGGRTNYADSVKGRFTISRDNAKNTVYLQMNSLKPEDTAVYYCAAEFRTGWPYYPDYAYDYWGQGSQVTVSS | low polyreactivity
QVQLVESGGGLVQAGGSLRLSCAASGRTFGHNAMGWYRQAPGKEREFVAAITYSGVRTFYADSVKGRFTISRDNAKNTVYLQMNSLKPEDTAVFYCAAYYPSQDYSGFWSDTYEYWGQGTQVTVSS | low polyreactivity
QVQLVESGGGLVQAGGSLRLSCAASGFIFWLNAMGWYRQAPGKERELVAASSIGGRTNYADSVKGRFTISRDNAKNTVYLQMNSLKPDDTAVYYCNKDYRSVYKGRGFDYCGQGTQVTVSS | low polyreactivity
QVQLVDSGGGLVQAGGSLRLSCAASGSTFNPYAMGWYRQAPGKERELVAGISWSGGSTYYADSVKGRFSISRDNAKNTVYLQMNSLKPEDTAVYYCAVVVYWSVIYDFWGQGTQVTVST | low polyreactivity
QVQLVESGGGLVQAGGSLRLSCAASGFTFSYYAMGWYRQAPGKERELVAAISFGGSTYYADSVKGRFTISRDNAKNTVYLQMNSLKPEDTAVYYCAVYGDSYWGAYYYSDGYWGQGTQVTVSS | low polyreactivity
QVQLVESGGGLVQAGGSLRLSCAASGLIFRNYAMGWYRQAPGKERELVAAISSGGDNTYYADSVKGRFTISRDNAKNTVYLQMNSLKPEDTAVYYCAAGRYVGPSYYAYGYWGQGTQVTVSS | high polyreactivity
QVQLVESGGGLVQAGGSLRLSCAASGSTFAIYGMGWYRQAPGKERELVAGITRGGSTNYADSVKGRFTISRDNAKNTVYLQMNSLKPEDTAVYYCNKVQRSTYYNGYDYWGQGTQVTVSS | high polyreactivity
QDQLVESAGGLVQAGGSLRLICAASGSTFALYAMGWYRQAAGTERELVAAISRSGGRTYYADSVKGRFTISRDNPKNTVYLQMNSLKPDDTAVYYCAADFSRPGGLDESWGQGTQVTVSS | high polyreactivity
QVQLVESGGGLVQAGGSLRLSCAASGSTFNGYAMGWYRQAPGKERELVAAITSSGSRTYYADSVKGRFTISRDNAKNTVYLQMNSLKPVDTAVYYCNAGKLARTYFRSSSLSPGDYWGQGTQVTVSS | high polyreactivity
QGQLVESGGGLVQAGGSLRLSCAASGSTLVKYAMGTNRQAPGKERELVAAISWSGGRTDYADSVKGRFTSSRDNAKNTVYLQMNSLKPEDTAVYYCAARSTRFYTPGYYYWGQGTQVTVSS | high polyreactivity
QVQLVESGGGLVQAGGSLRLSCAASGSIFRPYAMGWYRQAPGKERELVAAIRGGGTYYADSVKGRFTISRDNAKNTVYLQMNSLKPEDTAVYYCAQYRYSYYYWGQGTQVTVSS | high polyreactivity
QVQLVESGGGLVQAGGSLRLSCAASGRIFGRYAMGWYRQAPGKERELVASITRRGGSTYYADSVKGRFTISRDNAKNTVYLQMNSLKPEDTAVYYCAAGGFSWEGDSWGQGTEVTVSS | high polyreactivity
QVQLVESGGGIVQAGGSLRLSCAASGLTFPPNAMGWYRPAPGKEREFVAVISSGGGSTYYADSVKGRFTISRDNAKNTVYSQMNSLKPEDTAVYYCATEYQDGDTEYYYWGQGTQVTVSS | low polyreactivity
QVQLQESGGGLVHAGGSLRLSCAASGTISFINMMGWYRQAPGRERELVASINFGANTNYADSVKGRFTISRDNAKNTVYLQMNSLKPEYTAVYYCAVYDFDAYSLYYWGQGTLVTVSS | high polyreactivity
QVQLVESGGGLVQAGGSLRLSCAASGSIFRGYTMGWYRQAPGKERELVATISWSGGSTYYADTVKGRFTISRDNAKNTVYLQMNSLKREDTAVYYCDARNQCRGYYWGEGTQVTVSS | high polyreactivity
QVQLVESGGGLVQAGGSLRLTCAASGRTFYINAMGWYRQAPGKERELVAAISSGGSTNYADSVKGRFTISRDNAKNTVSLQMNSLKPEDTAVYYCNARLRSFTLSDAEYEYWGQGTQVTVSS | low polyreactivity
QVQLVESGGGLVQAGGSLRLSCAASGNIFGRYAMGWYRQAPGKERELVAAINWSGGSTNYADSVKGRFTISRDNAKNTVYLQMNSLKPEDTAVYYCAADYYYSLISNQYKYGQRNFDYWGQGTQVTVSS | low polyreactivity
QVQLQESGGGLVQAGGSLRLSSAASGSIIQYGYMGWYRQAPGKEREFVAGIGGGTSNYADSVKGRFTMSRDNAKNTVYLQMNSLKPEDTAVYYCNTDAGDYYGENYWGQGTQVTVSS | low polyreactivity
QVQLVESGGGLVQAGGSLRLSCAASGIIFSRYAMGWYRQAPGKERELVAAISSSGGTTYYADSVKGRFTISRDNAKNTVYLQMNSLKPEDTAVYYCYAPAFYKYKSFYAHSGYDYWGQGTQVTVSS | high polyreactivity

Sequence | polyreactivity (PSR sort gate)
QFQLLESGGGVVHAAGSLRLSCAASGLIFPIYAMGWYRQAPGKERELVAVISSSGGSTNYADSVKGRFTISRDNAKNTVYLQMNSLKPEDTAVYYCAARYLQGRYDYWGQGTQVTVSS | high polyreactivity
QVQLVESGGGLVQAGGSLRLSCAASGSIFYRNVMGWYRQAPGKERELVAAISQRGGSTYYADSVKGRFTISRDKAKNTVFLQMNSLKPEDTAVYYCNAASRGAGTSIWSWYDLWGQGTQVTVSS | low polyreactivity
QVQLVESGGGLVQAGGSLRLSCAASGIIFTDNAMGWSRQAPGKERELVAAISCRGGSTYYADSVKGRFTISRDNAKNTVYLQMNSLKPEDTAVYYCARYGTDHRLGYGYWGQGTQVTVSS | low polyreactivity
QVQLVESGGGLVQAGGSLRLSCAASGRTLISYAMGWYRQAPGKERELVAAISWGGSSTYYADSVKGRFTISGDNAKNTVYLQMNSLKPEDTAVYYCAAVSYRGRGLSRYVAYGYKYDYWGQGTQVTVSS | high polyreactivity
QVQLVESGGGLVQAGGRLRLSCAASGFIFSYYAMAWYIQAPGKERELVAAISSAGSTYYADSVKGRFTISRDNAKNTVYLQMNSLKPEDTAVYYCAAAIWYIKLYFVRRTEHGYWGQGTQVTVSS | low polyreactivity
QVQLVESGGGLVQAGGSLRLSCAASGSTFGLYAMGWYRQAPGKEREFVAAISWRTGSTYYADSVKGRFTISRDNAKNTVFLQMYSLKPEDTAVYYCAARAYGTIIHGYWGQGTHVTVSS | high polyreactivity
QVQLVESCGGLVQAGGSLRLSCAASGSTLATYAMGWYRQAPWKERELDAVITRGGRTYYADSVKGRFTISRDNAKNTVYLQMNSLKPEDTAVFYCNATRAGENPDGGDEYWGQGTQVTVSS | high polyreactivity
QVQLVESGGGLVQAGGSLRLSCAASGSIFITNAMGWYRQAPGKERELVAGITSGGSTYYADSVKGRFTISRDNAKNTFYLQMNSLKPEDTAVYYCAADGVTVTADEYDYWGHGTQVTVSS | low polyreactivity
QVQLVESGGGLVQAGGSLRLSCAASGSTFGGYTMGWYRQAPGKERELVAAITSRGGTTYYADSVKGRFTISRDNAKNTVYLQMNSLKPEDTAVYYCNRVSRYFYGFYWGQGTQVTVSS | high polyreactivity
QVQLLESGGAIVQAGGSHRLSCAASGSIFTHYAMGWYRQATGKERELVAGITSSGGSTYADSVKGRFTISRDNAKNSVYLQMISLKPEDTAVYYCAAEQLRSRLIEYDYWGQGTQVTVSS | low polyreactivity
QVQLVESGGGLVQAGGSLRLSCAASGSTFVSYAMGWYRQEPGKERELVATISQSGGSTSYADSVKGRFTISRDNAKNTVYFQMNCRKPEDTAVYNCAARLRAPHRRSYNYWGQGTQVTVSS | high polyreactivity
QVQLVESGGGLVQAGGSLRLSCASSGYTLRPNGKGWYRQAPGKERELVAAISSGGSTYYADSVKGRFTISRDNAKNTVYLQMNSLKPEDTAVYYCAAEYWYDYWGQGTQVTVSS | low polyreactivity
QVQLVESGGGLVQVGGSLRLSCAASGITLSYYAMGWYRQAPGKERELVASITVSRTSTYYADSVKGRFTISRDNAKNTVYLQMNSLKPEDTAVYYCAAYAYQYRFSGYGYWGQGTQVTVSS | low polyreactivity
QVQLVESGGGLVQAGGSLRLSCAASGFIFRTYAMGWYRQAPGKEREFVAAISSGSSTYYADSEKGRFTISRDNANNSVYLQMISLKPEDTAVYYCAARVPQQSRTWRGSTRSYRYGYWGQGTQVTVSS | high polyreactivity
QVHLVESGGGLVQAGGSLRLSCADYGRTFSRYAMGWYRQAPGKERELVATINSRAGITNYPDTVKGRFTISRDNAKNTVYLQMTSLKPEDTAVYYCNRGRPGGPSWYHFDYWGQGSQVTVSS | high polyreactivity
QVQLVESGGGLVQAGGSLRLSCAASGNTFWFYRMGWYRQAPGKERELVAAITSGGSTDYADSVKGRFTISRDNAKNTVYLQMNSLKPEDTAVYYCAAEPVAYYGSSYGYWGQGTQVTVSS | low polyreactivity
QVQLVESGGGLVQAGGSLRLSCAASGFTFYRYTMGWSRQAPGKERELVAAISARGVSTYYADSVKGRFTISRDNAKNTVYLQMNCLKPEDTAVYYCYVSRYDSWGQGTQVTVSS | high polyreactivity
QVQLQESGGGLVQAGGSLRLGCAASGNISDAGYMGWYRQAPGKEREFVAAIAAGSNTNYADSVKGRFTISRDNAKNTVYMQLNSLKSEDTGVFYCAVASYDRVQYEYWGQGTQVTVNS | low polyreactivity
QLQLVESGGGLVQAGGSLRLSCAASGLTFSYYAMGSYRQAPGKERELVAAITSSGGNTYYADSVKGRFTISRDNANNTVYLQMNSMKPEDTAVYYCAAERYQSFCYGKRPRRPRYDYWGLGTQVTVSS | high polyreactivity
QVQLVESGGGLVQAGGSLRLSCAASGSIFDDNAMGWYRQAPGKERELVAAITSTDSTNYADSVKGRFTISRDNAKNPVYLQMNSLKPEDTAVYYCNAESLGWYRLYTVDYWGQGTQVTVSS | low polyreactivity
QVQLVESGGGLVQAGGSIRLSCAASGRIFAYNPMGWSRQAPGKERELVAVITSGRSTNYADSVKGRFTISRDNEKNNVYLQMNSLKPVDTAFYYCAKRPYGRSGGSRYDYWGQGTQGTVSS | high polyreactivity
